# Measurements reported in article PMC9135631 (2022).
# T1: Latrophilin-3 ADHD-related variant A247S (Lphn3^A247S) (human)
# T1 chain: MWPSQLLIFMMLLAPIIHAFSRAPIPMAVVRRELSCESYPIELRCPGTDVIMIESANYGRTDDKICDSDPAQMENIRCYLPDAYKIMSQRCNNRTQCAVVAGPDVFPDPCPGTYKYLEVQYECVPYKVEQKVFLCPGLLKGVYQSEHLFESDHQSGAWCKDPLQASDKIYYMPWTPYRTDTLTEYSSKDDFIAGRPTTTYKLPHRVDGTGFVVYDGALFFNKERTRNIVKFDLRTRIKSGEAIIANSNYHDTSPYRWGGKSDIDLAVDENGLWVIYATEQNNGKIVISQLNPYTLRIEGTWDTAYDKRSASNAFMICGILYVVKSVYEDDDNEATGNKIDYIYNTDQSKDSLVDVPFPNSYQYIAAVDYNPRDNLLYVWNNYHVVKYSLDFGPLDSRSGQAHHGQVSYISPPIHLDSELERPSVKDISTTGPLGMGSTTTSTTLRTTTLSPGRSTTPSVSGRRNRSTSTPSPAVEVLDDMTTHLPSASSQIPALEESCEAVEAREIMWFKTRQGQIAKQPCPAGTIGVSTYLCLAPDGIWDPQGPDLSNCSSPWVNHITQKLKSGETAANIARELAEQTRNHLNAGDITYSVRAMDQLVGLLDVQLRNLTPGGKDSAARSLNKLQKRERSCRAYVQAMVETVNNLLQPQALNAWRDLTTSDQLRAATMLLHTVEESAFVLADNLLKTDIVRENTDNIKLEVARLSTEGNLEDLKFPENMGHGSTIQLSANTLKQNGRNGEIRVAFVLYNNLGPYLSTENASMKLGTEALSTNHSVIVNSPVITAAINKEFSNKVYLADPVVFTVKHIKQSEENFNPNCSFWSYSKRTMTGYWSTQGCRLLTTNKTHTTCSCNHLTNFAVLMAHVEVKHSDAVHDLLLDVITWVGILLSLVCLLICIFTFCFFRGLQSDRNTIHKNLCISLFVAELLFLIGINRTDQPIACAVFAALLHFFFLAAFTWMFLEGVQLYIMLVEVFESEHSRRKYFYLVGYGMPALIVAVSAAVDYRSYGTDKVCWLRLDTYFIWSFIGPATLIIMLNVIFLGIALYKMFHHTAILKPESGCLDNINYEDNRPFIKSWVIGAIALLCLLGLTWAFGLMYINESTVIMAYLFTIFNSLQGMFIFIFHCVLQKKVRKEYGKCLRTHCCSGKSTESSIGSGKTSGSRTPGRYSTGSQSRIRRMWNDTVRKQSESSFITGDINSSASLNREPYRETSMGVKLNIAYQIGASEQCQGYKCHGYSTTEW
# T2: Latrophilin-3 ADHD-related variant D615N (Lphn3^D615N) (human)
# T2 chain: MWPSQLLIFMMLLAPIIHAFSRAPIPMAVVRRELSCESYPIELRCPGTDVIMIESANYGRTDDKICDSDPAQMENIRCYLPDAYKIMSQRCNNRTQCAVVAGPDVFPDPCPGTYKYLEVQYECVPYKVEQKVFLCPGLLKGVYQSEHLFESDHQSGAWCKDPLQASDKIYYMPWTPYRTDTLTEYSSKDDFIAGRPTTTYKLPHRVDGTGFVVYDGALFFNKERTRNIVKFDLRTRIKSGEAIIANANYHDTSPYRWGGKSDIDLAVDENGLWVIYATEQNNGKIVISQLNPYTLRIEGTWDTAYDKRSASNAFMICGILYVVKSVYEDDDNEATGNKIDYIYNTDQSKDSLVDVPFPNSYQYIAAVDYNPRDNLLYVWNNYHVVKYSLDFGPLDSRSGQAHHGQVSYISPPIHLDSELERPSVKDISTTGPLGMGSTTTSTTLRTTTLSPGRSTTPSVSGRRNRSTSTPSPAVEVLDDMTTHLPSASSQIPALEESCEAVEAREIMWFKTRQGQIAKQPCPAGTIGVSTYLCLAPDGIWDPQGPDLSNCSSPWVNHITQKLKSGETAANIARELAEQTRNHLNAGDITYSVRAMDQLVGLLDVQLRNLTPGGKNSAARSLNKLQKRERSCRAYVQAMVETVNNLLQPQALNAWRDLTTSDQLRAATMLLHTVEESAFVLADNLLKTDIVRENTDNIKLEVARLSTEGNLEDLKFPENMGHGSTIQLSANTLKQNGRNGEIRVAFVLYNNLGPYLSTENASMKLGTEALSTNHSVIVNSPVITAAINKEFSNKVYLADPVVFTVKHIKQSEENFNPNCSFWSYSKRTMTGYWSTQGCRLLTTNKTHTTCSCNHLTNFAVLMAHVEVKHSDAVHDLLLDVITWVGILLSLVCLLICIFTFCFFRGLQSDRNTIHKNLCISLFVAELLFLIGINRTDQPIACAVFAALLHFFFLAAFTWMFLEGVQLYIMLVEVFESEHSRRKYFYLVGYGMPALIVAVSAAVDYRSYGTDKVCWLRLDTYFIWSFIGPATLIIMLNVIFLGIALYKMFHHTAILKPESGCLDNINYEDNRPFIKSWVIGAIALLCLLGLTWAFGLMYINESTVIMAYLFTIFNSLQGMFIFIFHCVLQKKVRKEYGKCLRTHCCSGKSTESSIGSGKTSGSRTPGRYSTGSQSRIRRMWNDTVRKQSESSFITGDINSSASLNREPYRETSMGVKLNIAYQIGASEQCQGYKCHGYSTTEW
# How the values were obtained:
# [1] = biological target: T1, Latrophilin-3 ADHD-related variant …
# [2] = biological target: T2, Latrophilin-3 ADHD-related variant …
binder,measurement,setting,value
"soluble FLRT3 extracellular domain fused to the constant fraction of human IgG (FLRT3^ECD-Fc) (Fc fusion, HA/Flag epitopes left out; isoform assumed; signal peptide removed and GPS autoproteolysis expected) KSCPSVCRCDAGFIYCNDRFLTSIPTGIPEDATTLYLQNNQINNAGIPSDLKNLLKVERIYLYHNSLDEFPTNLPKYVKELHLQENNIRTITYDSLSKIPYLEELHLDDNSVSAVSIEEGAFRDSNYLRLLFLSRNHLSTIPWGLPRTIEELRLDDNRISTISSPSLQGLTSLKRLVLDGNLLNNHGLGDKVFFNLVNLTELSLVRNSLTAAPVNLPGTNLRKLYLQDNHINRVPPNAFSYLRQLYRLDMSNNNLSNLPQGIFDDLDNITQLILRNNPWYCGCKMKWVRDWLQSLPVKVNVRGLMCQAPEKVRGMAIKDLNAELFDCKDSGIVSTIQITTAIPNTVYPAQGQWPAPVTKQPDIKNPKLTKDHQTTGSPSRKTITITVKSVTSDTIHISWKLALPMTALRLSWLKLGHSPAFGSITETIVTGERSEYLVTALEPDSPYKVCMVPMETSNLYLFDETPVCIETETAPLRMYNPTTTLNREQEKEPYKNPNLP",Kd,[1],1.22 nM
same,Kd,[2],1.25 nM
